Experimental data reported in PMC12276331, “Nanomechanical binding mechanism of ligands drives agonistic activity” (Nature Communications, 2025).

What was measured:
[1] = target: T1, transmembrane hCD40 receptor expressed on the surface of CHO cells (CHO-CD40-GFP) (human, UniProt P25942 21-277); assay: single-molecule force spectroscopy (AFM, SMFS); hCD40L coupled by its His6-tag to the PEG-tris-NTA AFM tip; living CHO cells expressing hCD40; room temperature; HEPES buffer (137 mM NaCl, 2.7 mM KCl, 10 mM HEPES, pH 7.4) with 50 µM NiCl2; contact time and pulling speed varied; Bell-Evans and Markov binding models; conditions: one partner purified
T1 construct: CD40 (TNFR superfamily), human; expressed from a CD40 green fluorescent protein fusion construct (Origene #RG201977) on CHO cells; source: CHO cells, transfected (Lipofectamine 2000), G418-selected and sorted by GFP; on living cells
T1 sequence (P25942 21-277): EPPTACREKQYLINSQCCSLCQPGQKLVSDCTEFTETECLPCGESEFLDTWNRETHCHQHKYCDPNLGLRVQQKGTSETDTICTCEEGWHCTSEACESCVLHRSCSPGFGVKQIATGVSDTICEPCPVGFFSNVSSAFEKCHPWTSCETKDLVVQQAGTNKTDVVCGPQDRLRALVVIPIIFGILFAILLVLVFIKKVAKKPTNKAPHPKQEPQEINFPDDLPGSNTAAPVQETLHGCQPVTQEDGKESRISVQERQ

[2] = target: T1, transmembrane hCD40 receptor expressed …; assay: as above; conditions: one partner purified; remark: listed apart in the source

Kd [1]: 3.2 µM
Kd [2]: 3.3 µM
koff [2]: 0.35 s⁻¹
kon [2]: 160000 M⁻¹ s⁻¹
B1: Active trimeric human CD40 ligand (hCD40L/hCD154; residues 116G-261L) with N-terminal His6-tag (CDL-H5248) (ligand, UniProt P29965 116-261, looked up)
chain: GDQNPQIAAHVISEASSKTTSVLQWAEKGYYTMSNNLVTLENGKQLTVKRQGLYYIYAQVTFCSNREASSQAPFIASLCLKSPGRFERILLRAANTHSSAKPCGQQSIHLGGVFELQPGASVFVNVTDPSQVSHGTGFTSFGLLKL
notes: CD40 ligand (CD154), human, residues 116G-261L; Used for SMFS (coupled to the tip by its His6-tag through tris-NTA/Ni) and for HS-AFM; also called trimeric hCD40L; source: bought: AcroBiosystems, USA (CDL-H5248); not shown: His6, N-terminal, kept
